“And” between values parts separate entries of the source, which are not always exact repeats. Equal values may be shown once.
Experiment: Determination of S from retention time shift Δ relative to P3 at two gradient slopes, nano-RP-HPLC MS of spiked tryptic digest
Assay type: physicochemical
Conditions: for Slope (experimental): LC-MS runs of model peptide mixture; for experimental S-value: model peptide mixture (tryptic digest of bovine proteins), 0.75 and 0.1875% acetonitrile per minute gradients, S from Δ vs. S curve of S-calibrating peptides
Method: Proteins and protein digestion. Tryptic digests of two different protein mixtures were utilized. The “test peptide mixture” contained human proteins: albumin, transferrin, fibrinogen. The “model peptide mixture” contained bovine proteins: albumin, transferrin, fibrinogen, catalase. Equimolar mixtures of the proteins were prepared, reduced with DTT, alkylated with iodoacetamide and digested with sequencing-grade modified trypsin (Promega, Madison, Wis.). Prior to nano-LC MS/MS analysis, mixtures were diluted with buffer A (0.1% formic acid in water) and spiked with the 6 standard peptides P1-P6^24 for test mixture and the set of 11 model peptides (described elsewhere^23) for a model mixture. All dilutions were performed to provide an injection of ˜100 fmole of each component into the nanoRP-HPLC MS system.
Chromatography. All chromatographic experiments were conducted at a controlled temperature of 22-23° C. For isocratic measurement of the slope values, a micro-Agilent 1100 Series system (Agilent Technologies, Wilmington, Del.), was used with a 1 mm×100 mm 5 μm Luna C18(2) (Phenomenex, Torrance, Calif.) column and a UV detector operated at 214 nm. Both eluents A (water) and B (acetonitrile) contained 0.1% formic acid as ion-pairing modifier. Stock solutions of the 11 standard peptides (˜1 mg/ml) were prepared by dissolving each peptide in 1 ml of 0.1% FA in water or a 20% acetonitrile solution. Ten microliters of sample was injected. Individual peptides were diluted to provide ˜0.5-1 μg injection of each component using a 10 μl loop. The dead volume of the column and connecting tubings was determined by injecting a non-retained compound (water) and measuring the elution time of the negative peak at a 150 μL/min flow rate. Retention factors for isocratic elution were calculated using the formula: k=(tR−t0)/t0c; where tR is the retention time, t0 is the system (column and tubings) dead time, and t0c is the column dead time. Additional details of measuring S-values via constructing log k vs. φ plots are provided elsewhere.^24 The nano-LC MS/MS experiments were conducted using splitless Tempo LC system (Eksigent, Dublin, Calif.) with 20 μL sample injection via a 300 μm×5 mm PepMap100 (Dionex, Sunnyvale, Calif.) trap-column and a 100 μm×200 mm analytical column packed with 5 μm Luna C18(2) (Phenomenex, Torrance, Calif.). Tryptic digests of the mixtures were spiked with calibrating peptides (see Table 1) as described above, injected on the trap-column using buffer A as a carrier and separated using 0.1875, 0.375 and 0.75 percent acetonitrile per minute linear gradients starting from 0.5% acetonitrile at 500 nL/min flow rate. The composition of both eluents A and B was identical to one described above for normal-flow system. Gradient programs consisted of a 0.5-40% linear increase of buffer B in 213.2, 106.6 and 53.3 minutes, respectively. After each run the gradient columns were washed with 80% B for 3 minutes and equilibrated with the starting A:B ratio for 18 minutes.
Mass spectrometry. A QStar Elite mass spectrometer (Applied Biosystems, Foster City, Calif.) equipped with a MicrolonSpray II source was used in standard MS/MS information dependent acquisition (IDA) mode for LC-ESI analyses. Protein identification was performed using Protein Pilot 3.0 (Applied Biosystems, Foster City, Calif.) with a restricted database containing target protein sequences and the sequences of standard peptides. Retention times of identified species (peak maxima) were assigned manually.
These two ways of measurement have been combined to provide a highly accurate and fast way of determining S for an extensive sets of peptides (see FIG. 3). First, precise isocratic measurement of S is performed in normal flow conditions with UV detection for a set of synthetic “S-calibrating” peptides. […]

Row | Substance | Slope (experimental) (experimental S value) | Slope (experimental) (experimental S, formic acid) | other results
1 | LAGSASAHAFR | 40.64 | – | –
2 | LLHLLHFR | 31.51 | – | –
3 | AVVQDPALKPLALVYGEATSR | – | 35.627 | –
4 | WDPYK | 26.36 | – | –
5 | LLGGGSLSSSLDAAAFR | 32.333 | – | –
6 | AVLKDGPLTGTYR | – | 35.435 | –
7 | LVNELTEFAK | 27.906 | – | –
8 | DQLVDMK | – | 25.899 | –
9 | ECCDKPLLEK | – | 35.555 | –
10 | VTALYEGFTVQNEANK | – | 30.77 | –
11 | AMTNLR | 32.841 | – | –
12 | FPTIPLSR | 27.325 | – | –
13 | DKDDFFTR | – | 25.342 | –
14 | LLSLADFR | 25.239 | – | –
15 | TGLAPEFAALGESGSSSSK | – | 28.402 | –
16 | FSTVAGESGSADTVRDPR | 44.208 | – | –
17 | LLGGSLSSLDAAFR | 30.604 | – | –
18 | VGDANPALQK | 38.388 | – | –
19 | TSHMDCIK | – | 40.393 | –
20 | LASAADFR | 29.663 | – | –
21 | QTALVELLK | 24.2 | – | –
22 | TPCTVTCNIPVVSGK | 34.721 | – | –

Row | Substance | Slope (experimental) (experimental S value) | Slope (experimental) (experimental S, formic acid) | other results
23 | VVQLEANCQEPCQDTVK | 39.579 | – | –
24 | QNCDQFEK | 36.657 | – | –
25 | KGSNFQLDQLQGR | – | 33.883 | –
26 | GAGAFGYFEVTHDITR | – | 33.608 | –
27 | IPSKVDSALYLGSR | 35.773 | – | –
28 | KVIEQVQR | 43.582 | – | –
29 | VDSALYLGSR | – | 27.122 | –
30 | EKYYGYTGAFR | 34.957 | – | –
31 | FYTEDGNVVOLVGNNTPIFFIR (FYTEDGNWDLVGNNTPIFFIR) | – | 31.467 | –
32 | NLLFNDNTECLAK | 28.81 | – | –
33 | CCTESLVNR | 33.998 | – | –
34 | LAGGGSASSSAHAAAFR | 44.118 | – | –
35 | EYEATLEECCAK | 35.459 | – | –
36 | NCPDKFCLFK | – | 28.518 | –
37 | IETMR | 37.108 | – | –
38 | GTGKECVPNSNER | – | 48.911 | –
39 | LLVLLHFR | 27.548 | – | –
40 | DSALGFLR [tryptic peptide detected in the model peptide mixture] | – | 21.784 | experimental S-value (formic acid): 21.8
41 | LESDVSTQMEYCR | 35.968 | – | –
42 | LQDTLVR | 29.045 | – | –
43 | WCTISQPEWFK | 30.438 | – | –
44 | FCLFK [tryptic peptide detected in the model peptide mixture] | 21.68 | – | experimental S-value (formic acid): 21.7

Row | Substance | Slope (experimental) (experimental S value) | Slope (experimental) (experimental S, formic acid) | other results
45 | LKPDPNTLCDEFKADEK | 41.815 | – | –
46 | GNLDDFFHR | – | 26.957 | –
47 | QFVSSSTTVNR | 37.462 | – | –
48 | GYLAVAVVK | 27.811 | – | –
49 | KANEGLTWNSLKDK | – | 35.507 | –
50 | YYGYTGAFR | 29.343 | – | –
51 | AFALECIR | 26.057 | – | –
52 | GEGENQCACSSR [moderately sized, hydrophilic tryptic species of the model peptide mixture] | – | 54.005 | experimental S-value (formic acid): 54.1 and 51.7
53 | DLEEGIQTLMGR | – | 26.684 | –
54 | DSLFNYQK | – | 24.58 | –
55 | LCVLHEK | 34.16 | – | –
56 | DDPHACYSTVFDK | – | 32.575 | –
57 | LLSLLHFR | 28.039 | – | –
58 | LAGGSASSAHAAFR | 42.588 | – | –
59 | LGGGGGGDFR | – | 31.043 | –
60 | SLHTLFGDELCK | – | 30.438 | –
61 | TVMENFVAFVDK | 28.849 | – | –
62 | LLGSLSLHAFR | 31.94 | – | –
63 | LCALCAGDDQGLDK | 33.517 | – | –
64 | KNYELLCGDNTR | – | 33.631 | –
65 | WCTISTHEANK | – | 37.234 | –
66 | KPPDADGCLHADPDLGVLCPTGCK | – | 40.448 | –

Row | Substance | Slope (experimental) (experimental S value) | Slope (experimental) (experimental S, formic acid) | other results
67 | KKEEAPSLRPVPPPISGGGYR | 44.873 | – | –
68 | IQLEDWNGR | 27.849 | – | –
69 | LAGGSASSADAAFR | 34.509 | – | –
70 | ECHLAQVPSHAVVAR | 44.148 | – | –
71 | DKVVQLEANCQEPCQDTVK | 42.675 | – | –
72 | ETTVFENLPEKADR | 34.533 | – | –
73 | QNQVQDNENWNEYSSHLEK | 40.065 | – | –
74 | LLIEMEDWK | 26.865 | – | –
75 | LCQLCAGK | 34.229 | – | –
76 | ETGWPFCSDEDWNTK | – | 29.105 | –
77 | DALLFPSFIHSQKR | – | 30.728 | –
78 | HSTVFDNLPNPEDRK | – | 36.807 | –
79 | TCVADESHAGCEK | – | 47.601 | –
80 | DIQYLPILK | 25.291 | – | –
81 | LKECCDKPLLEK | 42.82 | – | –
82 | NFSDVHPEYGSR | 37.948 | – | –
83 | DFPIANGER | – | 26.539 | –
84 | LLLLLDFR | 22.983 | – | –
85 | LLLLDFR | 23.297 | – | –
86 | LAHEDPDYGLR | 36.832 | – | –
87 | DKPDNFQLFQSPHGK | – | 32.597 | –
88 | WCAIGHQER | 35.992 | – | –

Row | Substance | Slope (experimental) (experimental S value) | Slope (experimental) (experimental S, formic acid) | other results
89 | YAAELHLVHWNTK | 36.188 | – | –
90 | LFAYPDTHR | 31.897 | – | –
91 | AWSVAR | – | 26.993 | –
92 | LAGSASADAFR | 32.092 | – | –
93 | NLRETAEEVK | 40.778 | – | –
94 | LLEACTFHKP | 36.237 | – | –
95 | LRPVAAEIYGTK | 34.815 | – | –
96 | LSQKFPK | 38.913 | – | –
97 | DALLFPSFIHSQK | – | 29.523 | –
98 | EDLIWK [tryptic peptide detected in the model peptide mixture] | 21.902 | – | experimental S-value (formic acid): 21.9
99 | FNSANDDNVTQVR | 38.415 | – | –
100 | AAQKPDVLTTGGGNPVGDKLNSLTVGPR | – | 41.986 | –
101 | GLIDEVDQDFTSR | 30.089 | – | –
102 | ETYGDMADCCEK | 36.36 | – | –
103 | ENVLR | 31.531 | – | –
104 | HMDGYGSHTFK | – | 41.758 | –
105 | QEPERNECFLSHKDDSPDLPK | 45.147 | – | –
106 | CACSNHEPYFGYSGAFK | – | 35.846 | –
107 | VHKECCHGDLLECADDR [fragment from bovine albumin] | – | 42.014 | experimental S-value (formic acid): ~42
108 | RHPYFYAPELLYYANK | 35.968 | – | –
109 | VVWCAVGPEEQKK | – | 33.2 | –
110 | YQLSVSK | 31.531 | – | –

Row | Substance | Slope (experimental) (experimental S value) | Slope (experimental) (experimental S, formic acid) | other results
111 | KQTALVELLK | – | 27.642 | –
112 | ISQLTNMGPTK | 33.29 | – | –
113 | IHLISTQSTIPYVLR | 35.386 | – | –
114 | GRQNQVQDNENVVNEYSSHLEK | – | 42.444 | –
115 | LNSLTVGPR | 30.791 | – | –
116 | KYCGVPGEYWLGNDR | – | 33.065 | –
117 | MVLETFGGDGHAR | – | 31.001 | –
118 | SVDGKEDLIWK | – | 30.068 | –
119 | YLTTLK | 27.604 | – | –
120 | FKDLGEEHFK | 38.336 | – | –
121 | KVPQVSTPTLVEVSR | 37.64 | – | –
122 | ANEGLTWNSLK | 27.455 | – | –
123 | KEEAPSLRPVPPPISGGGYR | 42.646 | – | –
124 | ETTVFENLPEK | 29.323 | – | –
125 | KDMDKVETFLR | 34.768 | – | –
126 | LGPNYLQIPVNCPYR | 32.953 | – | –
127 | CLVEK | – | 27.661 | –
128 | EDGGGWWVYNR | – | 23.696 | –
129 | VFEHIGKR | 41.112 | – | –
130 | NECFLSHKDDSPDLPK | 41.14 | – | –
131 | RLCENIAGHLK | 40.229 | – | –
